Measurements: patent US20130004432A1 (INSTITUT NATIONAL DE LA SANTE ET DE LA RECHERCHE MEDICALE, published 2013)

Target: T1, human B7H6 (human, UniProt Q68D85 25-454)
T1 construct: in the immunoblot and immunoprecipitation experiments it stood in cell lysates; residues 1-24 are not expressly called a signal peptide; also called P815.B7H6; P815.B7-H6
T1 sequence: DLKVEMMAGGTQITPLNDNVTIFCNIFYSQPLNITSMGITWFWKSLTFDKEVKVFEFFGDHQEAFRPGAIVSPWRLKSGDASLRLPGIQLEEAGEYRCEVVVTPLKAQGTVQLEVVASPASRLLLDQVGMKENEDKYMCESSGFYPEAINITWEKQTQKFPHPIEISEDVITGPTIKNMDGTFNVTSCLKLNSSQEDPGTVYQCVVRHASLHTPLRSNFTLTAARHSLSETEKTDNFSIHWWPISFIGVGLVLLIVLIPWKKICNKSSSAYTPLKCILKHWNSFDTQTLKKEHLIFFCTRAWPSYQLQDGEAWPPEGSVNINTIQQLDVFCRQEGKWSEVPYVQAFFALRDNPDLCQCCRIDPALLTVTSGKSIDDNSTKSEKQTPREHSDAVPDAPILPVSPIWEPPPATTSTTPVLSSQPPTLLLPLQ
Test: FACS on P815.B7-H6 cells

B1: NKp30Fc, soluble form of human NKp30 consisting of the extracellular domain of human NKp30 with a C-terminal Fc fusion (Fc fusion, UniProt O14931 19-135, looked up)
chain: LWVSQPPEIRTLEGSSAFLPCSFNASQGRLAIGSVTWFRDEVVPGKEVRNGTPEFRGRLAPLASSRFLHDHQAELHIRDVRGHDASIYVCRVEVLGLGVGTGNGTRLVVEKEHPQLG
notes: extracellular domain; not shown: C-terminal Fc
  binding result: binds
